In paper PMC12484072 one finds stoichiometry N data, which are given here for one substance.

The target in the test is SaNsrP, transmembrane permease of the BceAB-type ABC transporter SaNsrFP from Streptococcus agalactiae (S. agalactiae). Kind of test: SAXS.

In the case of “SaNsrF, nucleotide-binding domain of the BceAB-type ABC transporter SaNsrFP from Streptococcus agalactiae (natural protein)”, the stoichiometry N stood at 2.

The stoichiometry N is the number of molecules, sites or subunits per partner or assembly.
